Test results taken from FireProtDB (doi:10.1002/pro.5560010205).

Conditions: Mus musculus; pH 4; 23 °C; GdnHCl; Fluorescence; sodium phosphate 100 mM; reversible: yes; whole UniProt chain shown

B1: Beta-nerve growth factor wild type, P01139 (protein)
chain: MSMLFYTLITAFLIGVQAEPYTDSNVPEGDSVPEAHWTKLQHSLDTALRRARSAPTAPIAARVTGQTRNITVDPRLFKKRRLHSPRVLFSTQPPPTSSDTLDLDFQAHGTIPFNRTHRSKRSSTHPVFHMGEFSVCDSVSVWVGDKTTATDIKGKEVTVLAEVNINNSVFRQYFFETKCRASNPVESGCRGIDSKHWNSYCTTTHTFVKALTTDEKQAAWRFIRIDTACVCVLSRKATRRG
- unfolding free energy: 14.5 kcal/mol
